Measurements from PMC8387365.
pKd: −log10 of the molar value.

What was measured:
PRC1(1-486) = PRC1(1-486) (UniProt O43663); test: BLI
[1] = molecular target: full-length PRC1 (Protein Regulator of Cytokinesis-1) (UniProt O43663); test: BLI
[2] = molecular target: microtubules polymerised from tubulin; test: TIRF microscopy, GFP intensity on immobilised microtubules
microtubules polymerised from tubulin, sequence (P68363 whole entry, chain 1 of 2): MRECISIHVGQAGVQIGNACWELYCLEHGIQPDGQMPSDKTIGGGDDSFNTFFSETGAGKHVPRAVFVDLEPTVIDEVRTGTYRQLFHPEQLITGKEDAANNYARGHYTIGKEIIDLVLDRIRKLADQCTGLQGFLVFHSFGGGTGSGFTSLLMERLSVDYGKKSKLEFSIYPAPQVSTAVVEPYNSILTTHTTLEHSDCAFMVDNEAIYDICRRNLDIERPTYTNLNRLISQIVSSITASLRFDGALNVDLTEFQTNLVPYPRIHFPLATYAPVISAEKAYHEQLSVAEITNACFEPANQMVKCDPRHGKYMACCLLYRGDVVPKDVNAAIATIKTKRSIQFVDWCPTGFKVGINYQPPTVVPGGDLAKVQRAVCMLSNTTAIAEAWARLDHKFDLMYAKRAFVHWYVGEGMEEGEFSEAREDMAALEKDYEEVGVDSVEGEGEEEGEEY
microtubules polymerised from tubulin, sequence (A8K068 whole entry, chain 2 of 2, further chain): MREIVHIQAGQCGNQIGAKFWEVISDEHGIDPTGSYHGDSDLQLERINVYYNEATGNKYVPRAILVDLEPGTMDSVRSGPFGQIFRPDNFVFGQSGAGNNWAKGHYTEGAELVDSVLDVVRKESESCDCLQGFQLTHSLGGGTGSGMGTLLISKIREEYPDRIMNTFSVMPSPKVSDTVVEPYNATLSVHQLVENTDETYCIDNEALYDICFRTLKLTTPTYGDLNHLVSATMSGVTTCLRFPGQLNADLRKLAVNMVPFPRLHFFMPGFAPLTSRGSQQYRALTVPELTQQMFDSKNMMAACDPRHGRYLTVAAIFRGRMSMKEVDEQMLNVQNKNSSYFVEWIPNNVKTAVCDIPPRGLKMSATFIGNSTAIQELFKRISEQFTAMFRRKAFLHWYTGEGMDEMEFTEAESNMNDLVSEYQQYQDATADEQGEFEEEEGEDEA

PRC1(1-486), sequence (O43663 1-486): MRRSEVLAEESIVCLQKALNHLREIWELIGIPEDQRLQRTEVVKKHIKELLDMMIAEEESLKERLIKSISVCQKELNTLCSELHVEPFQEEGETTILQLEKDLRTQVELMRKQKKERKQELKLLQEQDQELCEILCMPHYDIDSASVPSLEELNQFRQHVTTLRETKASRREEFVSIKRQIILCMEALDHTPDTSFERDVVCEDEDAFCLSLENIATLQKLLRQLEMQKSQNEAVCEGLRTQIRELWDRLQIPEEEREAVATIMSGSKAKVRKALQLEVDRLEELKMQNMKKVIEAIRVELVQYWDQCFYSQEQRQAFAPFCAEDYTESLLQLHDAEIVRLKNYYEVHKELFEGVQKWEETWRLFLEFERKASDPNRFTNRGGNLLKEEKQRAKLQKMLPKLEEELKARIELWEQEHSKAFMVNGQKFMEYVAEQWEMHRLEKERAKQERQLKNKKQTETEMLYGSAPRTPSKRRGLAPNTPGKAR
full-length PRC1 (Protein Regulator of Cytokinesis-1), sequence (O43663 whole entry): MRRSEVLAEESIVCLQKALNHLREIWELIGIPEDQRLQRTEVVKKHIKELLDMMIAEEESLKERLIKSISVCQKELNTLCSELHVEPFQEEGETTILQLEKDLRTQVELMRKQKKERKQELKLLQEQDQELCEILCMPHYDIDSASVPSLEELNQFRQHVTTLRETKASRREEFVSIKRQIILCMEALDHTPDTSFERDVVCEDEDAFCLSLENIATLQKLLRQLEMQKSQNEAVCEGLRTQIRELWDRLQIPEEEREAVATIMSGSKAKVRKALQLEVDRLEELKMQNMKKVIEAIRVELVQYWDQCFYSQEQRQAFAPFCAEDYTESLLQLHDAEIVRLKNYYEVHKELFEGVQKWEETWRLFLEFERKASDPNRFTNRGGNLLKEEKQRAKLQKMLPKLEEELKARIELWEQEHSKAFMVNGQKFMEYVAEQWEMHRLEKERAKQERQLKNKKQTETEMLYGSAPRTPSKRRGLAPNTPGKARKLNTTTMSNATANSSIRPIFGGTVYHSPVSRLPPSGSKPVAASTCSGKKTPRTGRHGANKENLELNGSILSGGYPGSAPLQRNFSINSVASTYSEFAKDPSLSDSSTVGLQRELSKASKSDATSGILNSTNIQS

| pKd (PRC1(1-486)) | pKd [1] | Substance | GFP intensity per pixel at 8 nM [2] | GFP intensity per pixel at 40 nM [2] | GFP intensity per pixel at 60 nM [2] | GFP intensity per pixel at 80 nM [2] | GFP intensity per pixel at 160 nM [2] | GFP intensity per pixel at 400 nM [2] | GFP intensity per pixel at 800 nM [2] |
| --- | --- | --- | --- | --- | --- | --- | --- | --- | --- |
| 5.98 | 5.92 | CLASP1(654-1471)-GFP (domain or fragment) | – | – | – | – | – | – | – |
| – | – | full-length CLASP1-GFP (natural protein) | 26.9 | 95.3 | 109 | 400 | 398 | 754 | 854 |
